Here are results for 1 substance from PMC4395007.

For this assay, the target named is BG505 SOSIP.664 gp140 trimer (HIV-1) (UniProt Q2N0S6). Description: negative-stain electron microscopy.

On to CAP256-VRC26.09 Fab, for which the stoichiometry N (Fab per trimer) was found to be 1.
